Columns and labels:
human CLDN6 = target: T1, human CLDN6 (human, UniProt P56747 1-220); assay: cell-based or functional assay
T1 sequence: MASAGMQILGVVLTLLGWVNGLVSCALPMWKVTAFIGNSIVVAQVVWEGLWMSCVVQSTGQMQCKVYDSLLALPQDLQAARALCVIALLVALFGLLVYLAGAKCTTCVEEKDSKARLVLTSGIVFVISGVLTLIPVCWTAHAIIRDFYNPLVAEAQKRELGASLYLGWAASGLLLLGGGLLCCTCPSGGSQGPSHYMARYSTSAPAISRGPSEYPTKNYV

mouse CLDN3 = target: T2, mouse CLDN3 (mouse, UniProt Q9Z0G9 1-219); assay: FACS on Ba/F3 transfectant, antibody 20 micro g/ml, FITC anti-human IgG
T2 construct: whole, on cells; also called mCLDN3; BaF3_mCLDN3
T2 sequence (looked up): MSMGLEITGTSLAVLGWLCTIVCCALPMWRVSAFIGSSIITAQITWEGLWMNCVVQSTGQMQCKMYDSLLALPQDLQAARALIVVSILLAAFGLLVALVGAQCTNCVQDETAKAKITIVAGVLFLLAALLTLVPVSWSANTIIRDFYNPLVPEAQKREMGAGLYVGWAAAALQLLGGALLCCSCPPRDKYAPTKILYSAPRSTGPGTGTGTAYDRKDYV

mouse CLDN6 = target: T3, mouse CLDN6 (mouse, UniProt Q9Z262 1-219); assay: as above
T3 construct: whole, on cells; also called mCLDN6; BaF3_mCLDN6
T3 sequence (looked up): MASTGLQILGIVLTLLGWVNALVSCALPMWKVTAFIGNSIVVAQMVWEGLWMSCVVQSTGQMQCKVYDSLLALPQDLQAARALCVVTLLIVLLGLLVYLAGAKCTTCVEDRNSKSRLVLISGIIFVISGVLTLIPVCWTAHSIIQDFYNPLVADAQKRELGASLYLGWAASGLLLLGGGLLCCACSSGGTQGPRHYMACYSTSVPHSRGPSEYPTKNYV

human CLDN3 = target: T4, human CLDN3 (human, UniProt O15551 1-220); assay: as above
T4 construct: whole, on cells; also called hCLDN3; BaF3_hCLDN3
T4 sequence (looked up): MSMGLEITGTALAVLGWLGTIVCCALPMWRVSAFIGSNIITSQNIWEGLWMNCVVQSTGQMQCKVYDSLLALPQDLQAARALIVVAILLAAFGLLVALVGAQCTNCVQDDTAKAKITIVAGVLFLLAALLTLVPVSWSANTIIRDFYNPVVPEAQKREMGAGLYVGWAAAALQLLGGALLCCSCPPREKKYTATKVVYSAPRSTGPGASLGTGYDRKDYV

human CLDN4 = target: T5, human CLDN4 (human, UniProt O14493 1-209); assay: as above
T5 construct: whole, on cells; also called hCLDN4; BaF3_hCLDN4
T5 sequence (looked up): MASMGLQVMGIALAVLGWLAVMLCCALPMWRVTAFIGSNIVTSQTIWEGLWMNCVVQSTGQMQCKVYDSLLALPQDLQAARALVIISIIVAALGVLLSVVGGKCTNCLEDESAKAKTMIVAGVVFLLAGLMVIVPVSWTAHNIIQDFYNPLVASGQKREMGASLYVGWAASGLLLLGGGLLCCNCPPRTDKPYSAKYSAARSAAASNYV

human CLDN9 = target: T6, human CLDN9 (human, UniProt O95484 1-217); assay: as above
T6 construct: whole, on cells; also called hCLDN9; BaF3_hCLDN9
T6 sequence (looked up): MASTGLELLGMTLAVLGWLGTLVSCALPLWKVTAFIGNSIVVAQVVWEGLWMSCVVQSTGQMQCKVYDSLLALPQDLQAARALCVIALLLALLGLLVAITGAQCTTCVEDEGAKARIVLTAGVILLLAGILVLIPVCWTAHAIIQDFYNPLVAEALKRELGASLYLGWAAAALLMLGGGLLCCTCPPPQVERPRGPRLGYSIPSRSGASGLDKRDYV

EC50 (read off the curve), Jurkat/NFAT-RE luciferase reporter, target cells HuH-7 (human CLDN6): ~80 pM | Geo-mean value of FACS (mouse CLDN3): 27 | Geo-mean value of FACS (mouse CLDN6): 1790 | Geo-mean value of FACS (human CLDN3): 36 | Geo-mean value of FACS (human CLDN4): 34 | Geo-mean value of FACS (human CLDN9): 186
B1: CH04/CD3 (bispecific antibody, human IgG1, kappa, N297A)
heavy 1: EVQLQQSGPELVKPGASMKISCKASGYSFTGYTMNWVKQSHGKNLEWIGLINPYNGGTIYNQKFKGKATLTVDKSSSTAYMELLSLTSEDSAVYYCARDYGFVLDYWGQGTTLTVSSASTKGPSVFPLAPSSKSTSGGTAALGCLVKDYFPEPVTVSWNSGALTSGVHTFPAVLQSSGLYSLSSVVTVPSSSLGTQTYICNVNHKPSNTKVDKKVEPKSCDKTHTCPPCPAPELRGGPKVFLFPPKPKDTLMISRTPEVTCVVVDVSHEDPEVKFNWYVDGVEVHNAKTKPREEQYASTYRVVSVLTVLHQDWLNGKEYKCKVSNKALPAPIEKTISKAKGQPREPQVYTLPPSREEMTKNQVSLTCLVKGFYPSDIAVEWESNGQPENNYKTTPPYLDSDGSFFLYSKLTVDKSRWQQGNVFSCSVMHEALHNHYTQESLSLSP
light 1: DIVLTQSPSIMSVSPGEKVTITCSASSSVSYMHWFQQKPGTSPKLCIYSTSNLASGVPARFSGRGSGTSYSLTISRVAAEDAATYYCQQRSNYPPWTFGGGTKLEIKRTVAAPSVFIFPPSDEQLKSGTASVVCLLNNFYPREAKVQWKVDNALQSGNSQESVTEQDSKDSTYSLSSTLTLSKADYEKHKVYACEVTHQGLSSPVTKSFNRGEC
heavy 2: QVQLVESGGGVVQPGGSLRLSCAASGFTFSNAWMHWVRQAPGKGLEWVAQIKDKSQNYATYVAESVKGRFTISRADSKNSIYLQMNSLKTEDTAVYYCRYVHYAAGYGVDIWGQGTTVTVSSASTKGPSVFPLAPSSKSTSGGTAALGCLVKDYFPEPVTVSWNSGALTSGVHTFPAVLQSSGLYSLSSVVTVPSSSLGTQTYICNVNHKPSNTKVDKKVEPKSCDKTHTCPPCPAPELRGGPKVFLFPPKPKDTLMISRTPEVTCVVVDVSHEDPEVKFNWYVDGVEVHNAKTKPREEQYASTYRVVSVLTVLHQDWLNGKEYKCKVSNKALPAPIEKTISKAKGQPREPQVYTLPPSRKEMTKNQVSLTCLVKGFYPSDIAVEWESNGQPENNYKTTPPYLDSDGSFFLYSKLTVDKSRWQQGNVFSCSVMHEALHNHYTQKSLSLSP
light 2: DIVMTQSPLSLPVTPGEPASISCRSSQPLVHSNRNTYLHWYQQKPGQAPRLLIYKVSNRFSGVPDRFSGSGSGTDFTLKISRVEAEDVGVYYCGQGTQVPYTFGQGTKLEIKRTVAAPSVFIFPPSDEQLKSGTASVVCLLNNFYPREAKVQWKVDNALQSGNSQESVTEQDSKDSTYSLSSTLTLSKADYEKHKVYACEVTHQGLSSPVTKSFNRGEC
notes: Made by Fab arm exchange of the bivalent anti-CLDN6 antibody CH04 with the bivalent anti-CD3 antibody CD3-1; human IgG1 constant region; One anti-CLDN6 arm and one anti-CD3 arm; also called CLDN6-TRAB; CLDN6-targeted T-cell redirecting bispecific antibody

Reference: patent US20210054076A1 (Chugai, published 2021)
